This note sets out measurements from patent US20210277110A1 (Janssen / Centocor, published 2021).

For assay [1], the target named is T1, Full length human PD1 (huPD1) on cells (human, UniProt Q15116 25-288).
T1 construct: on T cells of human donors in the MLR and CMV assays (functional); also called PD-1 on Jurkat cells
Description: flow cytometry, PHA-stimulated Jurkat cells.

Assay [2] addresses T2, Extracellular domain of human PD1 (huPD1-ECD) (human, UniProt Q15116 25-169, biotinylated in the ligand inhibition assay (sites not given)).
T2 construct: Expressed with a hexahistidine tag or as Fc fusion; also called biotinylated PD-1
Description: SPR ProteOn, captured mAb, huPD1-ECD analyte.

Assay [3] has as its target T3, Extracellular domain of cyno PD1 (cPD1-ECD) (Macaca fascicularis (cynomolgus)).
T3 construct: Expressed with a hexahistidine tag or as Fc fusion; also called cynoPD1-ECD; cynoPD-1-ECD
T3 chain: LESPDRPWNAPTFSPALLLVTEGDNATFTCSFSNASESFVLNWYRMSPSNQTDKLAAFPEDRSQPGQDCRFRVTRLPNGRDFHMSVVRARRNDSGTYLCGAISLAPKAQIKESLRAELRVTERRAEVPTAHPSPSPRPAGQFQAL
The experiment in a line: SPR ProteOn, cynoPD1-ECD; RANGE low replicate.
Description: (§1) Affinity measurements using Surface Plasmon Resonance (SPR) were performed using a ProteOn XPR36 system. A biosensor surface was prepared by coupling a mixture of anti-IgG Fc modified alginate polymer layer surface of a GLC chip using the manufacturer instructions for amine-coupling chemistry. […] The collected data were processed and fitted to a Langmuir 1:1 binding model. The result for each mAb was reported in the format of kₒₙ (On-rate), koff (Off-rate) and KD (equilibrium dissociation constant).
(§2) STDEV were calculated for 3 or more replicates generated for human and cyno proteins. If less than 3 replicates were calculated, RANGE was indicated. RANGE is defined as the low and high values for the replicates tested. For samples in the Table 10 or Table 11 without value indicated in RANGE or STDEV, only one experiment was performed.

Assay [4] addresses T3, Extracellular domain of cyno PD1 …. Description: SPR ProteOn, captured mAb, cynoPD1-ECD analyte.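 Also: ProteOn XPR36 SPR with antibodies held by anti-IgG Fc on a GLC chip, on-rate, off-rate and KD derived from a Langmuir one-to-one fit.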
For assay [5] the target is unchanged. The experiment in a line: SPR ProteOn, cynoPD1-ECD; RANGE high replicate.
Description: as §1, §2
The target in assay [6] is T2, Extracellular domain of human PD1 …. The experiment in a line: MSD ligand inhibition, competitor coated cynoPDL1-ECD.
Assay [7] has as its target T3, Extracellular domain of cyno PD1 …. Description: SPR ProteOn, cynoPD1-ECD; RANGE low replicate; RANGE low replicate.
Description: as §1
STDEV were calculated for 3 or more replicates generated for human and cyno proteins. If less than 3 replicates were calculated, RANGE was indicated. RANGE is defined as the low and high values for the replicates tested.
Assay [8] shares this target. The experiment in a line: SPR ProteOn, cynoPD1-ECD; RANGE high replicate; RANGE high replicate.
Description: as §1, §2

T2 sequence (Q15116 25-169 limits assumed): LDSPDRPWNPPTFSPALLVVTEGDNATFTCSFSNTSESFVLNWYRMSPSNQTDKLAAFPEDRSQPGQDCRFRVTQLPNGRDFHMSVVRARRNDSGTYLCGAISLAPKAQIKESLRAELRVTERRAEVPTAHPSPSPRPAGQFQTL
T1 sequence (Q15116 25-288 limits assumed): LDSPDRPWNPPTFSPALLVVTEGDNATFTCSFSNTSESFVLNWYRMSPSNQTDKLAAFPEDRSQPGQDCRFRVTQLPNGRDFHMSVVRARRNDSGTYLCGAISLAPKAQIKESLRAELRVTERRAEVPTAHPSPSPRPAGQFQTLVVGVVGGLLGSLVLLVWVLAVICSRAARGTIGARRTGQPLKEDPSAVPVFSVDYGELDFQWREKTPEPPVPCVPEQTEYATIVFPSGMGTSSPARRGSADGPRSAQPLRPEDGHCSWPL

B1: PD1B162 (antibody, human IgG2, kappa, V domains shown)
VH: QVQLVQSGAEVKKPGSSVKVSCKASGGTFSSYAISWVRQAPGQGLEWMGGIIPIFDTANYAQKFQGRVTITADESTSTAYMELSSLRSEDTAVYYCARPGLAAAYDTGNLDYWGQGTLVTVSS
VL: EIVLTQSPATLSLSPGERATLSCRASQSVDSYLAWYQQKPGQAPRLLIYDASNRATGIPARFSGSGSGTDFTLTISSLEPEDFAVYYCQQREYWPLTFGQGTKVEIKR
notes: IgG2sigma/kappa; VH 42, VL 52; also called PD1H131/PD1L67
Regarding B1, in assay [1], a half-maximal response (EC50) required 0.05 mg/L. Besides, the Kd in assay [2] was determined as 5.95 nM; in assay [3] it was 2.5 nM; in assay [4] it was 2.53 nM; in assay [5] it was 2.6 nM. The koff in assay [2] was 0.00386 s⁻¹; in assay [4], 0.000979 s⁻¹; in assay [7], 0.000959 s⁻¹; in assay [8], 0.000998 s⁻¹. In addition, the kon was found to be 649000 M⁻¹ s⁻¹ in assay [2], 384000 M⁻¹ s⁻¹ in assay [3], 387000 M⁻¹ s⁻¹ in assay [4] and 389000 M⁻¹ s⁻¹ in assay [5]. Also, the “percentage ligand not blocked at 1 µg/ml” value in assay [6] turned out to be 7%. Besides, the “percentage ligand not blocked at 10 µg/ml” value in assay [6] was 6%.

B2: PD1B164 (antibody, human IgG2, kappa, V domains shown)
VH: QVQLVQSGAEVKKPGSSVKVSCKASGGTFSSYAISWVRQAPGQGLEWMGGIIPIFDTANYAQKFQGRVTITADESTSTAYMELSSLRSEDTAVYYCARPGLAAAYDTGNLDYWGQGTLVTVSS
VL: EIVLTQSPATLSLSPGERATLSCRASQSVRSYLAWYQQKPGQAPRLLIYDASYRATGIPARFSGSGSGTDFTLTISSLEPEDFAVYYCQQRDYWPLTFGQGTKVEIKR
notes: IgG2sigma/kappa; VH 42, VL 53; also called PD1H131/PD1L71
In assay [1], B2 gave an EC50 of 0.06 mg/L. The Kd stood at 2.92 nM in assay [2], 1.06 nM in assay [3], 1.07 nM in assay [4] and 1.09 nM in assay [5]. The koff in assay [2] turned out to be 0.00131 s⁻¹; in assay [4] it was 0.000287 s⁻¹; in assay [7], 0.000282 s⁻¹; in assay [8] it was 0.000291 s⁻¹. In addition, the kon in assay [2] amounted to 448000 M⁻¹ s⁻¹; in assay [3], 267000 M⁻¹ s⁻¹; in assay [4], 267000 M⁻¹ s⁻¹; in assay [5], 267000 M⁻¹ s⁻¹. In addition, the “percentage ligand not blocked at 1 µg/ml” value in assay [6] came to 6%. Besides, in assay [6], the “percentage ligand not blocked at 10 µg/ml” value is 3%.

What is called EC50 is the concentration needed to bring the measured effect to its halfway point. The low end stands for higher potency in that assay, the high end for lower potency in that assay. One may read the Kd as the free concentration of one partner at which half of the binding sites on the other are occupied at equilibrium, for simple one-to-one binding. Higher therefore signals lower affinity. The term koff denotes the rate constant with which the complex falls apart. The low end stands for slow dissociation, the high end for fast dissociation. One may read the kon as a measure of how fast the partners come together. Higher therefore signals faster complex formation.
